From patent publication US20030077800A1 (HORMOS MEDICAL, published 2003)

How the values were obtained:
[1] = molecular target: rat androgen receptor expressed from pSG-rAR (rat) (UniProt P15207); assay: cell-based or functional assay
[2] = molecular target: T1, LexA-AR ZFR (AR amino acids 554-644) (human, UniProt P10275 554-644); assay: cell-based or functional assay
T1 sequence (looked up): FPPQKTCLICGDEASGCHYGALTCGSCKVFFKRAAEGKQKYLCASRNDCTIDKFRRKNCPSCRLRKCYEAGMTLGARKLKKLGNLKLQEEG

[3] = molecular target: T2, LexA-HLBD (amino acids 624-919 of AR) (UniProt P10275 624-919); assay: cell-based or functional assay
T2 sequence (looked up): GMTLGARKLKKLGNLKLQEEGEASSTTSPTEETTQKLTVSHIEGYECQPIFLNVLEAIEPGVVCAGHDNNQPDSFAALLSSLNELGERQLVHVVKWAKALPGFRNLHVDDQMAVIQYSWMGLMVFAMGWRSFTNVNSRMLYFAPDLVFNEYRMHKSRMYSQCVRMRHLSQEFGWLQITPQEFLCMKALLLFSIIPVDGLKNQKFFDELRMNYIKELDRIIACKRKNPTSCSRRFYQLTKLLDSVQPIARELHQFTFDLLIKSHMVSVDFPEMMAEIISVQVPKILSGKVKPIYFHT

[4] = molecular target: T3, rat AR (amino acids 3-902) fused to the DBD of Gal4 (Gal4-AR) (rat, UniProt P04386 1-147; P15207 3-902); assay: mammalian two-hybrid in CV-1 cells, pG5LUC reporter
T3 construct: domain: DBD;range 3-902; Mammalian two-hybrid bait in CV-1 cells; also called Gal-AR

Chain of rat androgen receptor expressed from pSG-rAR (rat) (P15207 whole entry S389L, the tested form may be a part): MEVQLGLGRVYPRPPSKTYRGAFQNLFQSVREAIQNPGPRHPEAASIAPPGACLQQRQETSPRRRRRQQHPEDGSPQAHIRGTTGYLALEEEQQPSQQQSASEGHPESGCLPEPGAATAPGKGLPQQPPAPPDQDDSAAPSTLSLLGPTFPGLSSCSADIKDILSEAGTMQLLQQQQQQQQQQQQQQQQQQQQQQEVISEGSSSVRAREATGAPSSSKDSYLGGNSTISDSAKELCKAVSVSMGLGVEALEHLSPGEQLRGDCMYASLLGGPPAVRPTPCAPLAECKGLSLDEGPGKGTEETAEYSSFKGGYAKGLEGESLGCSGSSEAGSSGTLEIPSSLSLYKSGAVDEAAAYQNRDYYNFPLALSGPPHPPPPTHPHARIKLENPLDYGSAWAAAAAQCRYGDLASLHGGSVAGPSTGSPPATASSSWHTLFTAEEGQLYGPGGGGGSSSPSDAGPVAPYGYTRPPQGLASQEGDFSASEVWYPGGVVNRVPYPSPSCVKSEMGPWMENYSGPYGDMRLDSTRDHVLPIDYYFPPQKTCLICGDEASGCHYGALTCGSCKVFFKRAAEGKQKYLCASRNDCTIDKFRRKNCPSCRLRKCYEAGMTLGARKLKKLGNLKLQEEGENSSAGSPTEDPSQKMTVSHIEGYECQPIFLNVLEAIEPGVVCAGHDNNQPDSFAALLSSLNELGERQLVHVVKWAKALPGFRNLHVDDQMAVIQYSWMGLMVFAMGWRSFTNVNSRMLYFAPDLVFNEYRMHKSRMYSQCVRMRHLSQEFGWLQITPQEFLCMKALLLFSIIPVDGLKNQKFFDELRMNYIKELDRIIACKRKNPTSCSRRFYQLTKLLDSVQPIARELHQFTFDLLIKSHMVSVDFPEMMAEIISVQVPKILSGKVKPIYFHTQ

## FLAG-tagged ARIP4 (pFLAG-ARIP4) (from UniProt Q99NG0 1-1467)
[1]
  AR activity on the probasin promoter (pPB(-285/+32)-LUC, COS-1 cells) (% of that of AR alone): 50 to 60
  transcriptional activity of AR on a minimal promoter (ARE4-tk-LUC, COS-1 cells): 3 fold

B1: VP16 AD fused to ARIP4 (amino acids 86-227) (VP16 AD-ARIP4 ID) (other)
chain: RHQGKILASEDPKKKRAQKPSHMRRNIRKLLREDQLEPVTKAAQQEELERRKRLEQQRKEYAAPIPTVPLEFLPEEIVLRASDGPQLPPRVLAQEVICLDSSSGSEDEKSSRDEVIELSSGEEDTLHIVDSSESVSEEDEEE
[2]
  reporter gene activity (beta-galactosidase, yeast two-hybrid): ~100 fold
[3]
  reporter gene activity (beta-galactosidase, yeast two-hybrid, with androgen): 4 fold

B2: VP16-ODC fusion protein (human ornithine decarboxylase fused to VP16 AD) (other)
chain: MNNFGNEEFDCHFLDEGFTAKDILDQKINEVSSSDDKDAFYVADLGDILKKHLRWLKALPRVTPFYAVKCNDSKAIVKTLAATGTGFDCASKTEIQLVQSLGVPPERIIYANPCKQVSQIKYAANNGVQMMTFDSEVELMKVARAHPKAKLVLRIATDDSKAVCRLSVKFGATLRTSRLLLERAKELNIDVVGVSFHVGSGCTDPETFVQAISDARCVFDMGAEVGFSMYLLDIGGGFPGSEDVKLKFEEITGVINPALDKYFPSDSGVRIIAEPGRYYVASAFTLAVNIIAKKIVLKEQTGSDDEDESSEQTFMYYVNDGVYGSFNCILYDHAHVKPLLQKRPKPDEKYYSSSIWGPTCDGLDRIVERCDLPEMHVGDWMLFENMGAYTVAAASTFNGFQRPTIYYVMSGPAWQLMQQFQNPDFPPEVEEQDASTLPVSCAWESGMKRHRAACASASINV
notes: Negative control in the mammalian two-hybrid assay; also called human ODC
[4]
  binding result: no binding
